Results on three proteins are retold here after PMC8834691, “Deletion of Specific Conserved Motifs from the N-Terminal Domain of αB-Crystallin Results in the Activation of Chaperone Functions” (International Journal of Molecular Sciences, 2022).

This series concerns the molecule itself. Kind of series: SEC-MALS; 0.1 mg protein in 0.25 mL phosphate buffer, incubated at 37 °C for 1 h; TSK G5000PWXL column, 0.75 mL/min; subunits per oligomer = oligomeric mass divided by subunit mass. (In general: In gel filtration, larger molecules generally elute earlier.)

One may read the stoichiometry N as the number of molecules, sites or subunits per partner or assembly.

B1: αB-crystallin with residues 54–61 deleted (natural protein, human, UniProt P02511 1-175, looked up)
chain: MDIAIHHPWIRRPFFPFHSPSRLFDQFFGEHLLESDLFPTSTSLSPFYLRPPSDTGLSEMRLEKDRFSVNLDVKHFSPEELKVKVLGDVIEVHGKHEERQDEHGFISREFHRKYRIPADVDPLTITSSLSSDGVLTVNGPRKQVSGPERTIPITREEKPAVTAAPKK
notes: Polydisperse homo-oligomer (average molar mass 262 kDa by MALS); also called αBΔ54–61; αB∆54–61; source: E. coli BL21(DE3) pLysS, purified (45% ammonium sulfate precipitation, Superdex G200 gel filtration)
Consider B1, for which the binding result is “binds”.

B2: αB-crystallin with residues 21–28 and 54–61 deleted (natural protein, human, UniProt P02511 1-175, looked up)
chain: MDIAIHHPWIRRPFFPFHSPGEHLLESDLFPTSTSLSPFYLRPPSDTGLSEMRLEKDRFSVNLDVKHFSPEELKVKVLGDVIEVHGKHEERQDEHGFISREFHRKYRIPADVDPLTITSSLSSDGVLTVNGPRKQVSGPERTIPITREEKPAVTAAPKK
notes: Gene from GenScript in pET23a(+), without the C-terminal His-tag; the in-frame T7 tag was removed by PCR; Small homo-oligomer, average molar mass 85 kDa, on average close to four subunits; also called αBΔ21–28, Δ54–61; αB∆21–28, ∆54–61; source: E. coli BL21(DE3) pLysS, purified (45% ammonium sulfate precipitation, Superdex G200 gel filtration)
As for B2, the “stoichiometry N” value was around 4 subunits per oligomer.

B3: wild-type αB-crystallin (natural protein, human, UniProt P02511 1-175, looked up)
chain: MDIAIHHPWIRRPFFPFHSPSRLFDQFFGEHLLESDLFPTSTSLSPFYLRPPSFLRAPSWFDTGLSEMRLEKDRFSVNLDVKHFSPEELKVKVLGDVIEVHGKHEERQDEHGFISREFHRKYRIPADVDPLTITSSLSSDGVLTVNGPRKQVSGPERTIPITREEKPAVTAAPKK
notes: αB-crystallin, human, wild type, recombinant; called full-length αB-WT; Polydisperse homo-oligomer (average molar mass 558 kDa by MALS); also called αB-WT; WT-αB; source: E. coli BL21(DE3) pLysS, purified (45% ammonium sulfate precipitation, Superdex G200 gel filtration)
Turning to B3, the binding result was “binds”.
